This note sets out measurements from PMC4335062, “Data-Driven Prediction and Design of bZIP Coiled-Coil Interactions” (PLoS Computational Biology, 2015).

Several values for one entry are separate records, joined by “and”; a condition that tells them apart may be missing. Equal values may be shown once. Where no end group is shown, it is not given here.

One series deals with T1, JUN/FOS heterodimer (Homo sapiens, UniProt P05412).
T1 construct: made in house
Description: Competition FRET assay. The series is classed as binding. As for the experimental part:
The amount of acceptor used varied for each curve, taking into account the Kd of the FRET complex in order to obtain a good lower baseline for fitting purposes. Samples were equilibrated for one hour before reading the plates; repeated reading of the plates over several hours gave no change in signal. For the competition experiments, the IC50 was determined in MATLAB by fitting the binding data to the equation signal=[…] , where a and b are the lower and upper baselines, c is the IC50 value, x is the inhibitor concentration, and the Hill coefficient H was set to 1. Ki values were calculated as in Fu et al..

A further series deals with NFE2L1 (Homo sapiens, UniProt Q14494). Put plainly: FRET or BRET; direct-binding FRET in 384-well plates; rhodamine-labelled design (acceptor) titrated 0 to 1 uM into 10 nM fluorescein-labelled bZIP (donor); 150 mM KCl, 50 mM potassium phosphate pH 7.4, 0.1% Tween-20, 0.1% BSA; 23 °C. For orientation: BRET reads energy transfer from a luciferase to a nearby fluorophore.
Sequence of NFE2L1 (Q14494 whole entry): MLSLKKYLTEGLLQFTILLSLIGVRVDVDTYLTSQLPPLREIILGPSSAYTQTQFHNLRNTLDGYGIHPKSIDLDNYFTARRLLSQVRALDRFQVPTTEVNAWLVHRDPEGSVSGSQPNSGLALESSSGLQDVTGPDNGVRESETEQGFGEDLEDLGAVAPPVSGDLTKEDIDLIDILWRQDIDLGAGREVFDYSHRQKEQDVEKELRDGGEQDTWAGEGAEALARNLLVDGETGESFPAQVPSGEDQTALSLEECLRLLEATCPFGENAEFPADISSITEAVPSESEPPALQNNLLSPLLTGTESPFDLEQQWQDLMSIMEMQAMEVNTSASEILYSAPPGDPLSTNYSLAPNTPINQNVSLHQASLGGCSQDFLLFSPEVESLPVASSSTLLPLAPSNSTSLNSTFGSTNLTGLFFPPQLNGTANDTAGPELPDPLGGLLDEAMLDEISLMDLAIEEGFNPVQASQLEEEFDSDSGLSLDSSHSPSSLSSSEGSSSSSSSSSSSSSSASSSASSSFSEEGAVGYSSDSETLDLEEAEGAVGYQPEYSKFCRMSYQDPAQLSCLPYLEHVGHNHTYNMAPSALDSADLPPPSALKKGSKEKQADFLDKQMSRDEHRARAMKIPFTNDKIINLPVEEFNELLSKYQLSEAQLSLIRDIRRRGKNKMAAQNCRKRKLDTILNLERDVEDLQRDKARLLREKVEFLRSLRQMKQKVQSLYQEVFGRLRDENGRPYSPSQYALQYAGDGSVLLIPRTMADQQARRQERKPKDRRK
The target in the next series is BACH2 (Homo sapiens, UniProt Q9BYV9). Put plainly: FRET or BRET; direct-binding FRET in 384-well plates; rhodamine-labelled design (acceptor) titrated 0 to 1 uM into 10 nM fluorescein-labelled bZIP (donor); 150 mM KCl, 50 mM potassium phosphate pH 7.4, 0.1% Tween-20, 0.1% BSA; 4 °C.
Sequence of BACH2 (Q9BYV9 whole entry): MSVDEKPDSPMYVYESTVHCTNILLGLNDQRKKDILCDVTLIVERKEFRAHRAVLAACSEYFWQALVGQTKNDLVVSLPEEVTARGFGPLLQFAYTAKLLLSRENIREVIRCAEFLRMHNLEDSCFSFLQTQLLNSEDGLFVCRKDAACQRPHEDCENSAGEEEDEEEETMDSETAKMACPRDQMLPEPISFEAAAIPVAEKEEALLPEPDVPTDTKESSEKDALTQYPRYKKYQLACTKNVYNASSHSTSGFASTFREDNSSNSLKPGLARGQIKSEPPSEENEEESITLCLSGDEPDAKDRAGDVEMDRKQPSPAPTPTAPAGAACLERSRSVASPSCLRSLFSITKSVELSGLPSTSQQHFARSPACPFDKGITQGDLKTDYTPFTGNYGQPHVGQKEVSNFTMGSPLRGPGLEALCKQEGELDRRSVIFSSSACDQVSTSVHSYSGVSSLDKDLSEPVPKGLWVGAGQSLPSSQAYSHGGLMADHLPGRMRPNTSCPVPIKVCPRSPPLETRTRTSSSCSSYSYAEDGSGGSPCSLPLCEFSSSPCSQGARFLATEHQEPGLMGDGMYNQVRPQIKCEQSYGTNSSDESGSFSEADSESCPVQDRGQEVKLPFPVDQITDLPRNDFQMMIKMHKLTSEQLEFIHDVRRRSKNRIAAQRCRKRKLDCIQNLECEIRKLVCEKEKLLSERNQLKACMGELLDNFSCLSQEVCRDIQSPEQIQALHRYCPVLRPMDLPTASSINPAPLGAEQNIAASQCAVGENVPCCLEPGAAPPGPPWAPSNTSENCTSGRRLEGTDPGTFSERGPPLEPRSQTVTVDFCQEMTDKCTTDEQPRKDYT
The target in series [1] is Activating Transcription Factor (ATF) 3 (human) (UniProt P18847). Described as above.
Sequence of Activating Transcription Factor (ATF) 3 (human) (P18847 whole entry): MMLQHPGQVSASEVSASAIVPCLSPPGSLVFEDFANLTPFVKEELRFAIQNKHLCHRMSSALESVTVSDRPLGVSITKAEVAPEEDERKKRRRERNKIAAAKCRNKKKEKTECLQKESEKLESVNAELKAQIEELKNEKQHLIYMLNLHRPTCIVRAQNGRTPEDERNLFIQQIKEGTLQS
Series [2] concerns the target ATF5-d1 labeled at the C-terminus. Put plainly: FRET or BRET; direct-binding FRET of the designed peptide with itself (row 'homodimer'; dimer to monomers); acceptor-labelled design titrated into donor-labelled design by note 1 of the tables; 4 °C.
The target in series [3] is T2, MAFB (Homo sapiens, UniProt Q9Y5Q3). Description: FRET or BRET; direct-binding FRET in 384-well plates; rhodamine-labelled design (acceptor) titrated 0 to 1 uM into 10 nM fluorescein-labelled bZIP (donor); 150 mM KCl, 50 mM potassium phosphate pH 7.4, 0.1% Tween-20, 0.1% BSA; 23 °C.
T2 sequence (Q9Y5Q3 whole entry): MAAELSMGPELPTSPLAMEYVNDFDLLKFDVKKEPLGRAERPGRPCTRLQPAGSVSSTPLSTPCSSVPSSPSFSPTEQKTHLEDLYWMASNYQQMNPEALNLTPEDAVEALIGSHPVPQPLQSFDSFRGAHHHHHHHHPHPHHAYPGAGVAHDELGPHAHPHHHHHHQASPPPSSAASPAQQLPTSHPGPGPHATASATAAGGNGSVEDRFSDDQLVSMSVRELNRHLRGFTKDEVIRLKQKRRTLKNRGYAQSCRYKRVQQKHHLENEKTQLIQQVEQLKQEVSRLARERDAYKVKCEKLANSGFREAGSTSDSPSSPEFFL
For series [4], the target named is T3, MAF (Homo sapiens, UniProt O75444). The series is described as above.
T3 sequence (O75444 whole entry): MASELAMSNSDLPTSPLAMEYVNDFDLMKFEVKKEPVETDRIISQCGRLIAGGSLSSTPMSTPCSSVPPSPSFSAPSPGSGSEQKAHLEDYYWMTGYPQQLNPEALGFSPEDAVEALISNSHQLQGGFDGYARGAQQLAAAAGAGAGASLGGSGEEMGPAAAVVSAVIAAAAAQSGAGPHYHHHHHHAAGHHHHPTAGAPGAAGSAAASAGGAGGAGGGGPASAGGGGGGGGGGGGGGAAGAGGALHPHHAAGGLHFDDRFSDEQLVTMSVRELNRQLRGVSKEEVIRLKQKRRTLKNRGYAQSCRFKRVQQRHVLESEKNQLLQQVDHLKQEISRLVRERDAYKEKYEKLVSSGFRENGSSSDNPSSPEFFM
For series [5], the target named is T4, MAFG (Homo sapiens, UniProt O15525). The description is as above.
T4 sequence (O15525 whole entry): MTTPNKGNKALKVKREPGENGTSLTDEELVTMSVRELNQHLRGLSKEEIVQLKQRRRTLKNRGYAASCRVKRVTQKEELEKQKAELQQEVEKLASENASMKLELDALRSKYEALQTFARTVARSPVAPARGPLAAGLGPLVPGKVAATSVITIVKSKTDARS
Series [6] deals with the molecule itself. Description: FRET or BRET; direct-binding FRET of the designed peptide with itself (row 'homodimer'; dimer to monomers); acceptor-labelled design titrated into donor-labelled design by note 1 of the tables; 4 °C.
Series [7] addresses T2, MAFB. Put plainly: FRET or BRET; direct-binding FRET in 384-well plates; rhodamine-labelled design (acceptor) titrated 0 to 1 uM into 10 nM fluorescein-labelled bZIP (donor); 150 mM KCl, 50 mM potassium phosphate pH 7.4, 0.1% Tween-20, 0.1% BSA; 4 °C.
Series [8] has as its target T3, MAF. Described as above.
The target of the next series is BACH1 (Homo sapiens, UniProt O14867). The series is described as above.
Sequence of BACH1 (O14867 whole entry): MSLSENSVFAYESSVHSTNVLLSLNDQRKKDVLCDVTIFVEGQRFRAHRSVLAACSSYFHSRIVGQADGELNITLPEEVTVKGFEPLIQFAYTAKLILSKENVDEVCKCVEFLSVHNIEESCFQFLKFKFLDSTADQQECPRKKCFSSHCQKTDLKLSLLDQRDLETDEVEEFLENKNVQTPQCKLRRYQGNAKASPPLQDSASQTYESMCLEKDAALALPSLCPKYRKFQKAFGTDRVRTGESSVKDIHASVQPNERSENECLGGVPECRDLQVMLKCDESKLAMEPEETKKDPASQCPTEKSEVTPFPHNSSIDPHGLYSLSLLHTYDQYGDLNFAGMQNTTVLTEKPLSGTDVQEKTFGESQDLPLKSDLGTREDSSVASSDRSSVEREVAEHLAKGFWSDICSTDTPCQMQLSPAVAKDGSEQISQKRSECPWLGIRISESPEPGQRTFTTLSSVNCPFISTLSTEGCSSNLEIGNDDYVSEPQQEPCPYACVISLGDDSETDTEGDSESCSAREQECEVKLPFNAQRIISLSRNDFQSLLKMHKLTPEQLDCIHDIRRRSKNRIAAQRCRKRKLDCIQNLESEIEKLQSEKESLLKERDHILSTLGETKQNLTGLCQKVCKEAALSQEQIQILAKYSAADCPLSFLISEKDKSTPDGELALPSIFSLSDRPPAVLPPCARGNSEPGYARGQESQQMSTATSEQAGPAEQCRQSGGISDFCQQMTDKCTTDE
In series [9] the target is T4, MAFG. Described as above.
For a further series, the target named is MAFF (human) (UniProt Q9ULX9). The series is described as above.
Sequence of MAFF (human) (Q9ULX9 whole entry): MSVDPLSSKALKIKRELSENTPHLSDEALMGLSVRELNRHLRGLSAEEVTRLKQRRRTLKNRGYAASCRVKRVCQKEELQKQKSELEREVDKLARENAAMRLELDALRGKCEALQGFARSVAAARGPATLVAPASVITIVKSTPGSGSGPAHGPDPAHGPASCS
A further series addresses FOS (Homo sapiens, UniProt P01100). The series is described as above.
The target in a further series is ATF6B (Homo sapiens, UniProt Q99941). The series is described as above.
Another series deals with NFIL3 (human) (UniProt Q16649). Described as above.
Sequence of NFIL3 (human) (Q16649 whole entry): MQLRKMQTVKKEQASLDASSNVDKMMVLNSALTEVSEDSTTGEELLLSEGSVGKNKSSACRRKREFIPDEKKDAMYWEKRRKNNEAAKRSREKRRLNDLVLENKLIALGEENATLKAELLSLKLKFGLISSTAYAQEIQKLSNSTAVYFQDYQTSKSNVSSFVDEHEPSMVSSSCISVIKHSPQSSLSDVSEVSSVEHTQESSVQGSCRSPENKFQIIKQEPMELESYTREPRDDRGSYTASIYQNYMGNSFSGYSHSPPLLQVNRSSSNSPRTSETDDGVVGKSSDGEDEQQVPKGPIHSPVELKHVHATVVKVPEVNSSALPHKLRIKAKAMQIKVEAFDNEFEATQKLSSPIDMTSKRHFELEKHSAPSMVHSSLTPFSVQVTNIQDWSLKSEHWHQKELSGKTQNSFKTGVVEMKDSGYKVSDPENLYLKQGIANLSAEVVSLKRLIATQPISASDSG

Sequence of FOS (P01100 whole entry): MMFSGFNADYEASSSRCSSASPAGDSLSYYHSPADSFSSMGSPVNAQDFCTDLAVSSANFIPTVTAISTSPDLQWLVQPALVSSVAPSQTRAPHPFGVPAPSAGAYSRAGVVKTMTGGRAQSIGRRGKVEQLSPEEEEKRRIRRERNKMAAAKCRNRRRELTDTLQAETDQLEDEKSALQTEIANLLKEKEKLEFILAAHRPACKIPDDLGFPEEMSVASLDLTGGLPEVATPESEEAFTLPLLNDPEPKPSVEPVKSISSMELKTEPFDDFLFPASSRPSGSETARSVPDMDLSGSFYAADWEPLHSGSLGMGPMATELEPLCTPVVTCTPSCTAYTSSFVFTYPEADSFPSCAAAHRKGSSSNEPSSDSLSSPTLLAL

Take “SIAATLEKEEANLEKMNKKLAAEIESLLKEKDKLESVLNYHE [JUN-d1]”: the half-inhibitory concentration (IC50) on JUN/FOS heterodimer is 245 nM.

B1: ATF5-d1 labeled at the C-terminus (designed binder)
chain: GESKEYKKGSGSKRIAYLRQRIAELRNENHVLESRIQRMEKEKDALQQDRDHLEYELGC(Rhodamine Red C2‑maleimide)
modifications: not fully specified
B1: the dissociation constant (Kd) with NFE2L1 was > 5000 nM; with BACH2, > 5000 nM; in series [1], > 5000 nM; in [2], 1000 nM.

B2: ATF4-d1 labeled at the C-terminus (designed binder)
chain: GESKEYKKGSGSNQIKTLRTRLSKLRKDNLQLEKDIANLERKAKDLRAEKEQLEYELGC
modifications: also: C59 label by assay: Rhodamine Red C2-maleimide or fluorescein-5-maleimide
notes: solubility linker after the His6 tag; added to the C-terminus for labeling; one molecule for the rhodamine- and the fluorescein-labelled form; the assay tells which label stood there; also called ATF4-d1-Rhodamine; ATF4-d1-FITC; source: E. coli RP3098, purified (Ni-NTA under denaturing conditions, reverse-phase HPLC)
Regarding B2, the Kd with MAFB [3] was > 5000 nM; with MAF [4] it was > 5000 nM; with MAFG [5] it was 1000 nM; in series [6], 1 nM; in the series with MAFB [7], > 5000 nM; in the series with MAF [8], > 5000 nM. The Kd with BACH1 is > 5000 nM; with MAFG [9] it was 1000 nM; with MAFF (human) it was > 5000 nM; with FOS, 1000 nM; with ATF6B, 1000 nM; with NFIL3 (human), 22.8 nM and 23.3 nM and 22.6 nM.

As usually defined, the IC50 is the midpoint of a concentration-inhibition curve. Lower therefore signals greater potency in that assay. The Kd is the constant that tells how readily two partners part at equilibrium.
